Test results: US20050196403A1
Where two headings read alike, the source gives them in different places. Each block holds one binder with its values, some of them ahead of it. Non-standard residues stand in square brackets, D forms with d. No end group written: not given here. Abu = CC[C@H](N)C(=O)O

How the values were obtained:
HLA-A*6801 (human) [1] = test: competition with 125I probe peptide, purified HLA class I; details: remark: other sources report otherwise
HLA-A*1101 (human) [2] = test: as above; details: remark: other sources report otherwise
HLA-A*0301 (Human) [3] = details: remark: other sources report otherwise
HLA-A*1101 (Human) [4] = details: remark: other sources report otherwise
HLA-A*0301 (human) [5] = test: competition with 125I probe peptide, purified HLA class I; details: remark: other sources report otherwise
HLA-A*3101 (human) [6] = test: as above; details: remark: other sources report otherwise
HLA-A*0203 (human) [7] = test: as above; details: remark: other sources report otherwise
HLA-A*0206 (human) [8] = test: as above; details: remark: other sources report otherwise
HLA-A*1101 (human) [9] = test: inhibition of radiolabeled probe peptide binding to purified HLA, gel filtration; details: remark: other sources report otherwise
HLA-A*0301 (Human) [10] = details: remark: other sources report otherwise; remark: listed apart in the source
HLA-A*6801 (Human) [11] = details: remark: other sources report otherwise
HLA-A*3101 (Human) [12] = details: remark: other sources report otherwise
HLA-A*3301 (Human) [13] = details: remark: other sources report otherwise
HLA-A*0301 (Human) [14] = details: remark: other sources report otherwise; remark: listed apart in the source
HLA-A*2401 (human) = test: competition with 125I probe peptide, purified HLA class I
HLA-A*0206 (Human) [15] = test: competition vs 125I probe, purified HLA; details: remark: other sources report otherwise
HLA-A*0203 (Human) [16] = test: competition vs 125I probe, purified HLA; details: remark: other sources report otherwise
HLA-A*3301 (human) [17] = test: competition with 125I probe peptide, purified HLA class I; details: remark: other sources report otherwise
HLA-A*6802 (human) = test: as above; details: remark: other sources report otherwise

binding affinity ratio (IC50 of standard peptide/IC50 of test peptide) (HLA-A*0301 (Human) [3]): 3.3
binding affinity ratio (IC50 of standard peptide/IC50 of test peptide) (HLA-A*1101 (Human) [4]): 0.008
Binder: RTEEENLRKK [p53 peptide … (position 283, 10 amino acids)]

IC50 (HLA-A*6801 (human) [1]): 500 nM
IC50 (HLA-A*1101 (human) [2]): 12.8 nM
B1: 1371.16 BVYSPALNK p53.124.B1V2 (peptide)
peptide: BVYSPALNK
modifications: here or on the partner: B at position 1 is alpha-amino butyric acid (in place of cysteine)

IC50 (HLA-A*6801 (human) [1]): 29.6 nM
IC50 (HLA-A*0301 (human) [5]): 12.5 nM
IC50 (HLA-A*3101 (human) [6]): 9000 nM
IC50 (HLA-A*1101 (human) [2]): 17.1 nM
Binder: SV[Abu]MGGMNK [1371.24 SVBMGGMNK p53.240.V2B3K9]

IC50 (HLA-A*0203 (human) [7]): 19.6 nM
IC50 (HLA-A*0206 (human) [8]): 92.5 nM
Binder: KMFCQLAKT [… p53.132]

binding affinity ratio to standard peptide (HLA-A*1101 (human) [9]): 1.4
Binder: SSCMGGMNR

binding affinity ratio to standard peptide (HLA-A*1101 (human) [9]): 0.086
Binder: SSCMGGMNRR

IC50 (HLA-A*0206 (Human) [15]): 37 nM
IC50 (HLA-A*0203 (Human) [16]): 9.1 nM
Binder: KMF[Abu]QLAKV [p53.132B4V9 KMFBQLAKV]

IC50 (HLA-A*3301 (human) [17]): 10000 nM
Binder: KVYQGSYGFR [1371.14 … p53.101.V2]

binding affinity ratio to standard peptide (HLA-A*1101 (human) [9]): 0.012
Binder: TCTYSPALNK [p53 peptide … (position 123)]

binding affinity ratio to standard peptide (HLA-A*1101 (human) [9]): 0.0052
Binder: TSRHKKLMFK [p53 peptide … (position 377)]

binding affinity ratio to standard peptide (HLA-A*1101 (human) [9]): 0.12
Binder: VTCTYSPALNK [p53 peptide … (position 122)]

binding affinity ratio (IC50 of standard peptide/IC50 of test peptide) (HLA-A*0301 (Human) [10]): 1.5
binding affinity ratio to standard peptide (HLA-A*1101 (human) [9]): 0.73
Binder: RVRAMAIYK [p53 peptide … (position 156)]

binding affinity ratio (IC50 of standard peptide/IC50 of test peptide) (HLA-A*0301 (Human) [3]): 0.02
binding affinity ratio (IC50 of standard peptide/IC50 of test peptide) (HLA-A*1101 (Human) [4]): 1.4
binding affinity ratio (IC50 of standard peptide/IC50 of test peptide) (HLA-A*0301 (Human) [14]): 0.02
Binder: SSCMGGMNR [p53 peptide … (position 240, 9 amino acids)]

binding affinity ratio (IC50 of standard peptide/IC50 of test peptide) (HLA-A*0301 (Human) [3]): 0.07
binding affinity ratio (IC50 of standard peptide/IC50 of test peptide) (HLA-A*6801 (Human) [11]): 0.0068
binding affinity ratio (IC50 of standard peptide/IC50 of test peptide) (HLA-A*1101 (Human) [4]): 0.12
binding affinity ratio (IC50 of standard peptide/IC50 of test peptide) (HLA-A*0301 (Human) [14]): 0.07
Binder: VTCTYSPALNK [p53 peptide … (position 122, 11 amino acids)]

Continued, binder first:

Binder: SV[Abu]MGGMNRK [1371.25 SVBMGGMNRK p53.240.V2B3K10]
IC50 (HLA-A*6801 (human) [1]): 17 nM
IC50 (HLA-A*1101 (human) [2]): 75 nM

Binder: RTEEENLRK
binding affinity ratio (IC50 of standard peptide/IC50 of test peptide) (HLA-A*0301 (Human) [10]): 0.0015
binding affinity ratio to standard peptide (HLA-A*1101 (human) [9]): 0.091

Binder: RTEEENLRK [p53 peptide … (position 283, 9 amino acids)]
binding affinity ratio (IC50 of standard peptide/IC50 of test peptide) (HLA-A*0301 (Human) [3]): 0.0015
binding affinity ratio (IC50 of standard peptide/IC50 of test peptide) (HLA-A*6801 (Human) [11]): 0.0001
binding affinity ratio (IC50 of standard peptide/IC50 of test peptide) (HLA-A*1101 (Human) [4]): 0.091
binding affinity ratio (IC50 of standard peptide/IC50 of test peptide) (HLA-A*3101 (Human) [12]): 0.0002
binding affinity ratio (IC50 of standard peptide/IC50 of test peptide) (HLA-A*3301 (Human) [13]): 0.0006

Binder: SSCMGGMNRR [p53 peptide … (position 240, 10 amino acids)]
binding affinity ratio (IC50 of standard peptide/IC50 of test peptide) (HLA-A*0301 (Human) [3]): 0.0001
binding affinity ratio (IC50 of standard peptide/IC50 of test peptide) (HLA-A*1101 (Human) [4]): 0.086
binding affinity ratio (IC50 of standard peptide/IC50 of test peptide) (HLA-A*0301 (Human) [14]): 0.0001

Binder: YGFRLGFLH [p53 peptide … (position 107)]
binding affinity ratio to standard peptide (HLA-A*1101 (human) [9]): 0.26

Binder: TCTYSPALNK [p53 peptide … (position 123, 10 amino acids)]
binding affinity ratio (IC50 of standard peptide/IC50 of test peptide) (HLA-A*0301 (Human) [14]): 0.0056

Binder: TYQGSYGFRF [57.0096 … p53.102.F10]
IC50 (HLA-A*2401 (human)): 30 nM

Binder: RTEEENLRKK
binding affinity ratio (IC50 of standard peptide/IC50 of test peptide) (HLA-A*0301 (Human) [10]): 3.3

Binder: TSSSPQPK [p53 peptide TSSSPQPK (position 312)]
binding affinity ratio to standard peptide (HLA-A*1101 (human) [9]): 0.0019

Binder: KGQSTSRHK [p53 peptide … (position 373)]
binding affinity ratio (IC50 of standard peptide/IC50 of test peptide) (HLA-A*0301 (Human) [10]): 0.0014
binding affinity ratio to standard peptide (HLA-A*1101 (human) [9]): 0.0002

Binder: RMPEAAPPVA [p53.65 … (10-mer)]
IC50 (HLA-A*0206 (Human) [15]): 841 nM

Binder: LGFLHSGTAK [p53 peptide … (position 111)]
binding affinity ratio (IC50 of standard peptide/IC50 of test peptide) (HLA-A*0301 (Human) [10]): 0.0001
binding affinity ratio to standard peptide (HLA-A*1101 (human) [9]): 0.0002

Binder: GFLHSGTAK [p53 peptide … (position 112)]
binding affinity ratio (IC50 of standard peptide/IC50 of test peptide) (HLA-A*0301 (Human) [10]): 0.0014
binding affinity ratio to standard peptide (HLA-A*1101 (human) [9]): 0.0001

Binder: FLHSGTAKSV [1329.09 … p53.113]
IC50 (HLA-A*6802 (human)): 80000 nM

Binder: TSRHKKLMFK [p53 peptide … (position 377, 10 amino acids)]
binding affinity ratio (IC50 of standard peptide/IC50 of test peptide) (HLA-A*0301 (Human) [3]): 0.05
binding affinity ratio (IC50 of standard peptide/IC50 of test peptide) (HLA-A*1101 (Human) [4]): 0.0052
binding affinity ratio (IC50 of standard peptide/IC50 of test peptide) (HLA-A*0301 (Human) [14]): 0.05

Binder: TSSSPQPK [p53 peptide TSSSPQPK (position 312, 8 amino acids)]
binding affinity ratio (IC50 of standard peptide/IC50 of test peptide) (HLA-A*1101 (Human) [4]): 0.0019

Binder: RVRAMAIYK [p53 peptide … (position 156, 9 amino acids)]
binding affinity ratio (IC50 of standard peptide/IC50 of test peptide) (HLA-A*0301 (Human) [3]): 1.5
binding affinity ratio (IC50 of standard peptide/IC50 of test peptide) (HLA-A*6801 (Human) [11]): 0.003
binding affinity ratio (IC50 of standard peptide/IC50 of test peptide) (HLA-A*1101 (Human) [4]): 0.73
binding affinity ratio (IC50 of standard peptide/IC50 of test peptide) (HLA-A*3101 (Human) [12]): 3.7
binding affinity ratio (IC50 of standard peptide/IC50 of test peptide) (HLA-A*3301 (Human) [13]): 0.0063
